# Experimental data from patent US10047131B2, “Peptides and combination of peptides for use in immunotherapy against ovarian cancer and other cancers” (immatics biotechnologies GmbH, priority 2015, dated 2018).
# Target: HLA-A*02:01 (Homo sapiens, UniProt P04439, D140Y/D185E/D98H/E176V/E277Q/G131W/G231S/I119V/I121R/I166T/I218V/L300P/L318F/N151K/N90K/P208A/P217A/Q86G/Q94H/R138H/R169H/T345S)
# Experiment: MHC binding assay (UV-ligand exchange, ELISA of exchange yield)
# Details: binding to HLA-A*02:01, UV-ligand exchange
# Procedure, shortened: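 Peptide–MHC complexes made by UV-ligand exchange, where a UV-cleavable peptide is replaced by the test peptide. Exchange yield measured by ELISA: complexes diluted 100-fold on streptavidin-coated plates, stabilized complexes detected with HRP anti-β2m, TMB read at 450 nm.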
row,"Peptide exchange (MHC class I binding score, peptide exchange yield)",Substance
1,“++” (≥20% = ++),392 (ALLHPQGFEV; listed as Homo sapiens) [compound 392]
2,“+++” (≥50 = +++),364 (LLQNEQFEL; listed as Homo sapiens) [compound 364]
3,“++” (≥20% = ++),461 (VMFRTPLASV; listed as Homo sapiens) [compound 461]
4,“+++” (≥50 = +++),264 (SLQEQLHSV; listed as Homo sapiens) [compound 264]
5,“+++” (≥50 = +++),479 (SLFGNSGILENV; listed as Homo sapiens) [compound 479]
6,“+++” (≥50 = +++),443 (GLWEIENNPTV; listed as Homo sapiens) [compound 443]
7,“+++” (≥50 = +++),17 (GLLPGDRLVSV; listed as Homo sapiens) [compound 17]
8,“+++” (≥50 = +++),299 (YLLETSGNL; listed as Homo sapiens) [compound 299]
9,“++” (≥20% = ++),603 (FLIEPEHVNTV; listed as Homo sapiens) [compound 603]
10,“++” (≥20% = ++),210 (LLLNAVLTV; listed as Homo sapiens) [compound 210]
11,“+++” (≥50 = +++),588 (SLLPLSHLV; listed as Homo sapiens) [compound 588]
12,“+++” (≥50 = +++),449 (KLAEGLDIQL; listed as Homo sapiens) [compound 449]
13,“+++” (≥50 = +++),34 (ILVEADSLWVV; listed as Homo sapiens) [compound 34]
14,“++” (≥20% = ++),186 (TLFFQQNAL; listed as Homo sapiens) [compound 186]
15,“+++” (≥50 = +++),341 (SQIALNEKLVNL; listed as Homo sapiens) [compound 341]
16,“+++” (≥50 = +++),266 (KITDTLIHL; listed as Homo sapiens) [compound 266]
17,“+++” (≥50 = +++),223 (ALLENIALYL; listed as Homo sapiens) [compound 223]
18,“++” (≥20% = ++),80 (FLYDNLVESL; listed as Homo sapiens) [compound 80]
19,“+++” (≥50 = +++),139 (SVMEVNSGIYRV; listed as Homo sapiens) [compound 139]
20,“+++” (≥50 = +++),20 (RMIEYFIDV; listed as Homo sapiens) [compound 20]
21,“+++” (≥50 = +++),471 (YLYNNMIAKI; listed as Homo sapiens) [compound 471]
22,“++” (≥20% = ++),114 (SLVGEPILQNV; listed as Homo sapiens) [compound 114]
23,“+++” (≥50 = +++),192 (KMLDGASFTL; listed as Homo sapiens) [compound 192]

row,"Peptide exchange (MHC class I binding score, peptide exchange yield)",Substance
1,“+++” (≥50 = +++),604 (SILDRDDIFV; listed as Homo sapiens) [compound 604]
2,“+++” (≥50 = +++),286 (YLFPGIPEL; listed as Homo sapiens) [compound 286]
3,“++” (≥20% = ++),277 (LLPPLESLATV; listed as Homo sapiens) [compound 277]
4,“+++” (≥50 = +++),248 (FLFPNQYVDV; listed as Homo sapiens) [compound 248]
5,“+++” (≥50 = +++),66 (FLDENIGGVAV; listed as Homo sapiens) [compound 66]
6,“++++” (≥75% = ++++),321 (GLFEDVTQPGILL; listed as Homo sapiens) [compound 321]
7,“++++” (≥75% = ++++),237 (ALLEASGTLLL; listed as Homo sapiens) [compound 237]
8,“+++” (≥50 = +++),493 (GLLGEKTQDLIGV; listed as Homo sapiens) [compound 493]
9,“+++” (≥50 = +++),356 (KLLGKLPEL; listed as Homo sapiens) [compound 356]
10,“++” (≥20% = ++),273 (NLFQSVREV; listed as Homo sapiens) [compound 273]
11,“+++” (≥50 = +++),76 (ILIDSIYKV; listed as Homo sapiens) [compound 76]
12,“+++” (≥50 = +++),433 (AMLNEPWAV; listed as Homo sapiens) [compound 433]
13,“++” (≥20% = ++),124 (ALYETELADA; listed as Homo sapiens) [compound 124]
14,“+++” (≥50 = +++),596 (ALLDQTKTLAESAL; listed as Homo sapiens) [compound 596]
15,“+++” (≥50 = +++),73 (NIFDLQIYV; listed as Homo sapiens) [compound 73]
16,“++” (≥20% = ++),44 (ILDPISSGFLL; listed as Homo sapiens) [compound 44]
17,“+++” (≥50 = +++),500 (SLMEDQVLQL; listed as Homo sapiens) [compound 500]
18,“++” (≥20% = ++),504 (GLSDGNPSL; listed as Homo sapiens) [compound 504]
19,“+++” (≥50 = +++),430 (HLYSSIEHLTT; listed as Homo sapiens) [compound 430]
20,“+++” (≥50 = +++),300 (ALLGQTFSL; listed as Homo sapiens) [compound 300]
21,“+++” (≥50 = +++),244 (SLFGGTEITI; listed as Homo sapiens) [compound 244]
22,“+++” (≥50 = +++),327 (GLAPFTEGISFV; listed as Homo sapiens) [compound 327]
23,“++” (≥20% = ++),428 (KLGHTDILVGV; listed as Homo sapiens) [compound 428]

row,"Peptide exchange (MHC class I binding score, peptide exchange yield)",Substance
1,“+” (≥10% = +),153 (FLIANVLYL; listed as Homo sapiens) [compound 153]
2,“+++” (≥50 = +++),267 (ALQDFLLSV; listed as Homo sapiens) [compound 267]
3,“+++” (≥50 = +++),328 (ALNDQVFEI; listed as Homo sapiens) [compound 328]
4,“++” (≥20% = ++),538 (LLLAHIIAL; listed as Homo sapiens) [compound 538]
5,“++” (≥20% = ++),363 (KVLDVSDLESV; listed as Homo sapiens) [compound 363]
6,“+++” (≥50 = +++),346 (LLDSKVPSV; listed as Homo sapiens) [compound 346]
7,“++++” (≥75% = ++++),387 (ALFQATAEV; listed as Homo sapiens) [compound 387]
8,“++++” (≥75% = ++++),320 (KMFEFVEPLL; listed as Homo sapiens) [compound 320]
9,“+++” (≥50 = +++),69 (FQLDPSSGVLVTV; listed as Homo sapiens) [compound 69]
10,“++” (≥20% = ++),253 (GLDAATATV; listed as Homo sapiens) [compound 253]
11,“++” (≥20% = ++),385 (SLLEQGLVEA; listed as Homo sapiens) [compound 385]
12,“++” (≥20% = ++),432 (TLIEESAKV; listed as Homo sapiens) [compound 432]
13,“+++” (≥50 = +++),240 (ILLEQAFYL; listed as Homo sapiens) [compound 240]
14,“++++” (≥75% = ++++),568 (TLYDIAHTPGV; listed as Homo sapiens) [compound 568]
15,“+++” (≥50 = +++),541 (SMLEPVPEL; listed as Homo sapiens) [compound 541]
16,“+++” (≥50 = +++),72 (SLLELDGINL; listed as Homo sapiens) [compound 72]
17,“++” (≥20% = ++),453 (KLLEATSAV; listed as Homo sapiens) [compound 453]
18,“+++” (≥50 = +++),106 (LLYDAVHIVSV; listed as Homo sapiens) [compound 106]
19,“+++” (≥50 = +++),101 (ILVGGGALATV; listed as Homo sapiens) [compound 101]
20,“+++” (≥50 = +++),16 (VLFQGQASL; listed as Homo sapiens) [compound 16]
21,“+++” (≥50 = +++),396 (ALLPDLPAL; listed as Homo sapiens) [compound 396]
